Laboratory results as given in article doi:10.1101/2020.08.09.229716.

Molecular target: Gβγ subunits (fluorescent-tagged, of the FRET Gαi activity reporter) (UniProt P62873)
Assay: FRET or BRET

Q: How did the reduction in FRET signal compared to WT and 3YF turn out when “Gαi1-Y154H activity reporter (from UniProt P63096 1-354) (natural protein)” was run?
A: The reduction in FRET signal compared to WT and 3YF was 80%.

Q: “Gαi1-WT activity reporter (fluorescent-tagged Gαi) (from UniProt P63096 1-354) (natural protein)” was tested. Which loss of FRET signal after EGF stimulation did it give?
A: Its loss of FRET signal after EGF stimulation is 50%.
